The assay deals with T1, rat EphB1 (rat, UniProt P09759 18-538, limits assumed).
T1 sequence (looked up): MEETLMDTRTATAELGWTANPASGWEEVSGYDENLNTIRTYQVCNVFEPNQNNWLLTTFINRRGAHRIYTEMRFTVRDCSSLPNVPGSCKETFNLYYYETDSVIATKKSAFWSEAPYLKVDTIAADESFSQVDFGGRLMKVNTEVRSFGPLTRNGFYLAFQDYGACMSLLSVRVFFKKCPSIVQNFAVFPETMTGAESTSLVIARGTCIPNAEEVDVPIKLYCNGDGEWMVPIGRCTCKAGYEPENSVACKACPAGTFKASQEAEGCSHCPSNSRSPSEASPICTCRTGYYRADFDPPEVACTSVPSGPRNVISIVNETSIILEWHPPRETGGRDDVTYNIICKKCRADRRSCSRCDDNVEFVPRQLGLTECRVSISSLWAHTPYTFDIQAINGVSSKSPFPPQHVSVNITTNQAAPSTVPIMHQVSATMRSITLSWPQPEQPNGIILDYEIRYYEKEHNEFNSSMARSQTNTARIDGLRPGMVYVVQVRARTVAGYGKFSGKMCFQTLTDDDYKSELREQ
Description: ELISA, well L15 [part 2]. (ELISA stands for enzyme-linked immunosorbent assay.)

B1: MOR03640 Fab (Fab, V domains shown)
VH: QVQLVESGGGLVQPGGSLRLSCAASGFTFNNSWMSWVRQAPGKGLEWVSNITSSSSMTHYADSVKGRFTISRDNSKNTLYLQMNSLRAEDTAVYYCARKGMSFYNNKYAKSMFDLWGQGTLVTVSS
VL: DIELTQPPSVSVAPGQTARISCSGDNLGKKYVHWYQQKPGQAPVLVIYYDSKRPSGIPERFSGSNSGNTATLTISGTQAEDEADYYCSAWTTTMMHIVFGGGTKLTVLG
notes: Monomeric HuCAL Fab, purified, MH-tagged
For B1, the binding result is reported as “no binding”.
